Experimental data taken from patent US20190248902A1 (published 2019).

Target: T1, Human ASGR-2 (human, UniProt P07307 1-311)
T1 construct: Expressed on HEK 293 cells; cDNA GenBank NM_080913.3; also called huASGR-2; hASGR-2
T1 sequence: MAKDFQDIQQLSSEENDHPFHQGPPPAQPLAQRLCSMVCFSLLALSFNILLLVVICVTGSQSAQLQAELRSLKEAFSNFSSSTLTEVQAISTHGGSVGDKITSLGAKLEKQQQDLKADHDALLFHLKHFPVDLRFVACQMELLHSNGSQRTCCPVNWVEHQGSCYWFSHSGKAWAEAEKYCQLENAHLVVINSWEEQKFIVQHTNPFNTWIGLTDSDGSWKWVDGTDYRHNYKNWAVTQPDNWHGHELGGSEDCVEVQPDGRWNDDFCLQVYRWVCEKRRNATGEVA
Test: FACS on transfected HEK 293 cells; Y = signal at least 2x irrelevant IgG
Procedure: Human ASGR-1-specific, ligand competing antibody samples were tested for binding to ASGR-1 from other species (cynomologus monkey ASGR-1, mouse ASGR-1, rat ASGR-1, dog ASGR-1, and pig ASGR-1) as well as to human ASGR-2 in FACS binding assays at normalized antibody concentrations. For cell-based assays, HEK 293 cells expressing the appropriate antigen of interest were mixed with antibody sample or controls, incubated for 1 hour at 4° C., and then washed twice. Cells with bound antibody were then incubated with Alexa Fluor® 647 IgG Fc fragment-specific detection antibody and 7-AAD viability stain for 15 minutes at 4° C., washed once and resuspended in FACS buffer. Samples were analyzed using a BD Accuri™ Flow Cytometer and an Intellicyt HyperCyt Autosampler. As a negative control, supernatants and controls were also screened against HEK 293 cells transfected with empty parental vector. […] For membrane-prep binding assays, ASGR-1 species specific membrane preps were used to coat LumAvidin® microspheres (beads) and tested for binding to selected hybridoma supernatants or controls. Briefly, ASGR-1 species specific membrane preps were incubated with streptavidin-coated LumAvidin® beads for 45 minutes in the dark at room temperature and washed twice. Beads were resuspeneded in FACS buffer containing Stabilguard®. […] Samples were analyzed using an Intellicyt iQue™ Screener Platform. […]

B1: 6G7 (antibody, V domains shown)
VH: QVQLVESGGGVVQPGRSLRLSCAASGFTFSSYGMHWVRQTPGKGLEWVAIISYVGKNKYYADSVKGRFTISRDNSKNTLYLQMNSLRAEDTAVYYCARRGNSYGGYGMDVWGQGTTVTVSS
VL: DIQMTQSPSSRSASVGDRVTITCQASQDISNYLNWCQQKPGKALKLLIYDASTLETGVPSRFSGSGSGTDFTFTISSVQPEDIATYYCQQYDNVPITFGQGTRLEIK
notes: Tested as hybridoma supernatant at normalized concentration
- binding result: binds
